Reference: article PMC2120044 (The Journal of Cell Biology, 1994)

Biological target: the molecule itself
Assay: SEC

B1: cofactor A purified from bovine testis (natural protein, UniProt P48427 1-108, looked up)
chain: MADPRVRQIKIKTGVVKRLVKEKMMYEKEAKQQEEKIEKMKAEDGENYAIKKQAEILQESRMMIPDCQRRLEAAHTDLLQLLESEKDLEEAEEYKEARLVLDSVKLEA
B1 was tested, and the “stoichiometry N” value was 2.
